Test results: patent US20150329637A1 (NUMAB, published 2015)
Where two headings read alike, the source gives them in different places.

Key:
[1] = molecular target: mouse CD3 (mouse CD36E [sic], Sino Biologicals Inc., Cat. No. CT033-M2508H) (mouse) (UniProt P22646); assay: SPR
[2] = molecular target: T1, mouse IL23R (as used in the SPR of PRO387 and PRO386) (mouse, UniProt Q8K4B4 24-372, limits assumed); assay: SPR
T1 sequence (looked up): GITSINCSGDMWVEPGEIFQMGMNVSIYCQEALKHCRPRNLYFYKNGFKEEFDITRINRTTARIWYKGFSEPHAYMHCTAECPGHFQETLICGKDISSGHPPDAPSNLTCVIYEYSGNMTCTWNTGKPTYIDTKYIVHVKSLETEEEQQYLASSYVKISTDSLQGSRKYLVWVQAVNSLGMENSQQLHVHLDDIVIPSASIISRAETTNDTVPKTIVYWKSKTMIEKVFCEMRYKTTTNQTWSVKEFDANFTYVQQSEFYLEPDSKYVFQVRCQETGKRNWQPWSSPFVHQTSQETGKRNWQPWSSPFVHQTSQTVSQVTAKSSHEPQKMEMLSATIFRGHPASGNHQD

[3] = molecular target: mouse CD3 (mouse CD36E [sic], Sino Biologicals Inc., Cat. No. CT033-M2508H) (mouse) (UniProt P22646); assay: SPR; remark: listed apart in the source
[4] = molecular target: T1, mouse IL23R (as used in the SPR of …); assay: SPR; remark: listed apart in the source
[5] = molecular target: T2, mouse IL23R Fc chimera (R&D Systems, Cat. No. 1686-MR-050) (mouse, UniProt Q8K4B4 24-372); assay: SPR; IL23R Fc chimera captured by anti-human Fc, scFv injected
T2 construct: Bought reagent; Fc part of the bought chimera not given
T2 sequence (looked up): T1 sequence (looked up)
Method: (§1) Binding affinities of anti-IL23R scFvs were measured by surface plasmon resonance (SPR) using a MASS-1 SPR instrument (Sierra Sensors). […] After immobilization, 1 ug/ml recombinant human IL23R Fc chimera (R&D Systems, Cat. No. 1400-IR-050) was captured by the anti-human IgG antibody while a second immobilized channel served as a control where the capture was replaced by buffer. Two-fold serial dilutions of human scFvs ranging from 180 to 2.81 nM were injected into both flow cells for 3 min and dissociation of the scFvs from the chimera on the sensor chip was allowed to proceed for 700 sec. After each injection cycle, surfaces were regenerated with two 1 min injections of 10 mM glycine-HCI pH 1.5. In a similar manner the affinities for cynomolgus and mouse IL23R Fc chimera (R&D Systems, Cat. No. 1686-MR-050) was measured. The apparent dissociation (kd) and association (ka) rate constants and the apparent dissociation equilibrium constant (KD) were calculated with the MASS-1 analysis software (Analyzer, Sierra Sensors) using one-to-one Langmuir binding model.

[6] = molecular target: T3, cynomolgus IL23R Fc chimera (cynomolgus monkey, UniProt G7NWY5 24-353); assay: as above
T3 construct: Named only in the method sentence 'cynomolgus and mouse IL23R Fc chimera'; also called cyno IL23R; not shown: Fc part of the chimera
T3 sequence: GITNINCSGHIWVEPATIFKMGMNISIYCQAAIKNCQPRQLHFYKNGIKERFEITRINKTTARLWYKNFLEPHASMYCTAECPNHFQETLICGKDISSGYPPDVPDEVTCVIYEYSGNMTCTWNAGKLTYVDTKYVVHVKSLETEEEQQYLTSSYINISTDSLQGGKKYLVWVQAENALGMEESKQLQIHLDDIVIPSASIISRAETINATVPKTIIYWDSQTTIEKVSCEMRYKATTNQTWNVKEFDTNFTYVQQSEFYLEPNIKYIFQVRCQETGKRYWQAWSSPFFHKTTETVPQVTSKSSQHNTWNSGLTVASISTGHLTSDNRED
Method: as §1

[7] = molecular target: T4, recombinant human IL23R Fc chimera (R&D Systems, Cat. No. 1400-IR-050) (human, UniProt Q5VWK5 24-353); assay: as above
T4 construct: Bought reagent; not shown: Fc part (and any linker) of the bought chimera; captured by an anti-human IgG Fc antibody
T4 sequence (looked up): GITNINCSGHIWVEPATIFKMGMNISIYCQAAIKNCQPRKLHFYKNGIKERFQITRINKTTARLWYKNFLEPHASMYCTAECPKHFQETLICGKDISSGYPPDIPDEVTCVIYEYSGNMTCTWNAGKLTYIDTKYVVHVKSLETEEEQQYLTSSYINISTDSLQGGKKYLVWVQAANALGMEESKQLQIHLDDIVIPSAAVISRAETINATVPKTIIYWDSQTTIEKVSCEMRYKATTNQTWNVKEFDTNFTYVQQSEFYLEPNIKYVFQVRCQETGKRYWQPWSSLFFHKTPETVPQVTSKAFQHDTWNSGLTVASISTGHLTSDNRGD
Method: as §1

mouse CD3 (mouse CD36E [sic], Sino Biologicals Inc., Cat. No. CT033-M2508H) (mouse), sequence (P22646 22-108, chain 1 of 2): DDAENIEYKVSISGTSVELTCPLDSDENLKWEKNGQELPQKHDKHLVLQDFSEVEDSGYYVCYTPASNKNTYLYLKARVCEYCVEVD
mouse CD3 (mouse CD36E [sic], Sino Biologicals Inc., Cat. No. CT033-M2508H) (mouse), sequence (P04235 22-105, chain 2 of 2, further chain): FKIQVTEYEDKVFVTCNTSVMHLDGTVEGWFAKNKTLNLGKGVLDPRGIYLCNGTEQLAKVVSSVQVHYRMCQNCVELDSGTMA

B1: PRO400 (Fab, V domains shown)
VH: EVQLVESGGGLVQPGKSLKLSCEASGFTFSGYGMHWVRQAPGRGLESVAYITSSSINIKYADAVKGRFTVSRDNAKNLLFLQMNILKSEDTAMYYCARFDWDKNYWGQGTMVTVSS
VL: DIQMTQSPSSLPASLGDRVTINCQASQDISNYLNWYQQKPGKAPKLLIYYTNKLADGVPSRFSGSGSGRDSSFTISSLESEDIGSYYCQQYYNYPWTFGPGTKLEIKR
Q: Which Kd [1] does the source give for B1 here?
A: 11.4 nM

Q: And the koff [1]?
A: 0.00266 s⁻¹

Q: And the kon [1]?
A: 233000 M⁻¹ s⁻¹

B2: PRO386 (bispecific antibody)
light: DIQMTQSPSSLPASLGDRVTINCQASQDISNYLNWYQQKPGKAPKLLIYYTNKLADGVPSRFSGSGSGRDSSFTISSLESEDIGSYYCQQYYNYPWTFGPGTKLEIKRRTVAAPSVFIFPPSDEQLKSGTASVVCLLNNFYPREAKVQWKVDNALQSGNSQESVTEQDSKDSTYSLSSTLTLSKADYEKHKVYACEVTHQGLSSPVTKSFNRGECGGGGSGGGGSHMDIQMTQSPSSLSASVGDRVTITCQASENIYSFLAWYQQKPGKAPKLLIYSASKLAAGVPSRFSGSGSGTDFTLTISSLQPEDFATYYCQQTNRYSNPDIYNVFGQGTKLTVLGGGGGSGGGGSGGGGSGGGGSEVQLVESGGGLVQPGGSLRLSCAASGIDFNSNYYMCWVRQAPGKGLEWIGCIYVGSHVNTYYANWAKGRFTISRDNSKNTVYLQMNSLRAEDTAVYYCATSGSSVLYFKFWGQGTLVTVSS
heavy: EVQLVESGGGLVQPGKSLKLSCEASGFTFSGYGMHWVRQAPGRGLESVAYITSSSINIKYADAVKGRFTVSRDNAKNLLFLQMNILKSEDTAMYYCARFDWDKNYWGQGTMVTVSSASTKGPSVFPLAPSSKSTSGGTAALGCLVKDYFPEPVTVSWNSGALTSGVHTFPAVLQSSGLYSLSSVVTVPSSSLGTQTYICNVNHKPSNTKVDKKVEPKSCGGGGSGGGGSHMDIQMTQSPSSLSASVGDRVTITCQASENIYSFLAWYQQKPGKAPKLLIYSASKLAAGVPSRFSGSGSGTDFTLTISSLQPEDFATYYCQQTNRYSNPDIYNVFGQGTKLTVLGGGGGSGGGGSGGGGSGGGGSEVQLVESGGGLVQPGGSLRLSCAASGIDFNSNYYMCWVRQAPGKGLEWIGCIYVGSHVNTYYANWAKGRFTISRDNSKNTVYLQMNSLRAEDTAVYYCATSGSSVLYFKFWGQGTLVTVSS
notes: Heterodimer; bispecific and trivalent (one anti-CD3 Fab, two anti-IL23R scFvs); also called PRO386 (Tribody); Fab-scFv fusion surrogate
Q: Which Kd [2] does the source give for B2 here?
A: 0.583 nM

Q: And the koff [2]?
A: 0.000533 s⁻¹

Q: And the kon [2]?
A: 915000 M⁻¹ s⁻¹

Q: And the Kd [3]?
A: 11.5 nM

Q: And the koff [3]?
A: 0.00196 s⁻¹

Q: And the kon [3]?
A: 171000 M⁻¹ s⁻¹

B3: PRO387 (bispecific antibody)
chain: DIQMTQSPSSLSASVGDRVTITCQASENIYSFLAWYQQKPGKAPKLLIYSASKLAAGVPSRFSGSGSGTDFTLTISSLQPEDFATYYCQQTNRYSNPDIYNVFGQGTKLTVLGGGGGSEVQLVESGGGLVQPGKSLKLSCEASGFTFSGYGMHWVRQAPGRGLESVAYITSSSINIKYADAVKGRFTVSRDNAKNLLFLQMNILKSEDTAMYYCARFDWDKNYWGQGTMVTVSSGGGGSGGGGSGGGGSGGGGSDIQMTQSPSSLPASLGDRVTINCQASQDISNYLNWYQQKPGKAPKLLIYYTNKLADGVPSRFSGSGSGRDSSFTISSLESEDIGSYYCQQYYNYPWTFGPGTKLEIKRGGGGSEVQLVESGGGLVQPGGSLRLSCAASGIDFNSNYYMCWVRQAPGKGLEWIGCIYVGSHVNTYYANWAKGRFTISRDNSKNTVYLQMNSLRAEDTAVYYCATSGSSVLYFKFWGQGTLVTVSS
notes: also called PRO387 (scDb); surrogate scDb
Q: What does the source list for B3?
A: Kd [1]: 9.11 nM; koff [1]: 0.00213 s⁻¹; kon [1]: 233000 M⁻¹ s⁻¹; Kd [4]: 4.66 nM; koff [4]: 0.00326 s⁻¹; kon [4]: 701000 M⁻¹ s⁻¹

B4: 14-11-D07-sc01 (scFv)
scFv: DIQMTQSPSSLSASVGDRVTITCQASENIYSFLAWYQQKPGKAPKLLIYSASKLAAGVPSRFSGSGSGTDFTLTISSLQPEDFATYYCQQTNRYSNPDIYNVFGQGTKLTVLGGGGGSGGGGSGGGGSGGGGSEVQLVESGGGLVQPGGSLRLSCAASGIDFNSNYYMCWVRQAPGKGLEWIGCIYVGSHVNTYYANWAKGRFTISRDNSKNTVYLQMNSLRAEDTAVYYCATSGSSVLYFKFWGQGTLVTVSS
notes: Humanized scFv (CDR graft on a VK1/VH3 framework); also called anti-IL23R scFv 14-11-D07-sc01
Q: What does the source list for B4?
A: Kd [5]: 2.21 nM; koff [5]: 0.00418 s⁻¹; kon [5]: 1.89e+06 M⁻¹ s⁻¹; Kd [6]: 0.124 nM; koff [6]: 0.000361 s⁻¹; kon [6]: 2.92e+06 M⁻¹ s⁻¹; Kd [7]: 0.116 nM; koff [7]: 0.000259 s⁻¹; kon [7]: 2.24e+06 M⁻¹ s⁻¹
